From paper PMC12724383 come the findings set out here.

Common to all, as to details: 50 mM HEPES, 150 mM NaCl, 10% glycerol (pH not given for the reactions; protein storage buffer pH 7.5), room temperature, 15 min (EMSA) or 40 min …
Background: In EMSA bound probe runs differently from free probe, usually more slowly.

Series [1] concerns T1, DbuR (Pseudomonas putida), ORF:fe707e5d.
T1 sequence: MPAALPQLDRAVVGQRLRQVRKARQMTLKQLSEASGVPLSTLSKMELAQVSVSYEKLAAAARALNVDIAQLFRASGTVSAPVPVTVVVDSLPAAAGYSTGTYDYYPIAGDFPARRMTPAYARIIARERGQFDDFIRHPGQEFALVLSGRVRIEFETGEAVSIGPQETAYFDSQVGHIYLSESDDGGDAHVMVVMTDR
The experiment in a line: DNase I footprinting.

The test system is the same in series [2]. The experiment in a line: EMSA.
Series [3] has the same test system. Put plainly: competition EMSA.

As to “TCAGGGATCTCGGCATGCGGCGGTGGTCGGGCATCTTACCTTGGACCCTTGCGCATTTCTAAATTCTCATATATTAGAATTCTCATAAATGATAATTGCCTGGCAGGAGCGTGCATGACCCCGACCTACGACA (double strand) [Pdbu 133 bp, 5'-FAM/5'-HEX]”, the binding result in series [1] is listed as “binds”.
Take “TCAGGGATCTCGGCATGCGGCGGTGGTCGGGCATCTTACCTTGGACCCTTGCGCATTTCTAAATTCTCATATATTAGAATTCTCATAAATGATAATTGCCTGGCAGGAGCGTGCATGACCCCGACCTACGACA (double strand) [Pdbu 133 bp, 5'-FAM]”: the binding entry in series [2] is listed as “binds”.
“TCAGGGATCTCGGCATGCGGCGGTGGTCGGGCATCTTACCTTGGACCCTTGCGCATTTCTAAATTCTCATATATTAGAATTCTCATAAATGATAATTGCCTGGCAGGAGCGTGCATGACCCCGACCTACGACA (double strand) [Pdbu 133 bp, unlabeled]”: the binding result in series [3] is reported as “binds”.
